Reference: IntAct's records for PubMed 14532120

B1: Interferon alpha/beta receptor 1 (Mus musculus), P33896 (parent)
chain: MLAVVGAAALVLVAGAPWVLPSAAGGENLKPPENIDVYIIDDNYTLKWSSHGESMGSVTFSAEYRTKDEAKWLKVPECQHTTTTKCEFSLLDTNVYIKTQFRVRAEEGNSTSSWNEVDPFIPFYTAHMSPPEVRLEAEDKAILVHISPPGQDGNMWALEKPSFSYTIRIWQKSSSDKKTINSTYYVEKIPELLPETTYCLEVKAIHPSLKKHSNYSTVQCISTTVANKMPVPGNLQVDAQGKSYVLKWDYIASADVLFRAQWLPGYSKSSSGSRSDKWKPIPTCANVQTTHCVFSQDTVYTGTFFLHVQASEGNHTSFWSEEKFIDSQKHILPPPPVITVTAMSDTLLVYVNCQDSTCDGLNYEIIFWENTSNTKISMEKDGPEFTLKNLQPLTVYCVQARVLFRALLNKTSNFSEKLCEKTRPGSFSTIWIITGLGVVFFSVMVLYALRSVWKYLCHVCFPPLKPPRSIDEFFSEPPSKNLVLLTAEEHTERCFIIENTDTVAVEVKHAPEEDLRKYSSQTSQDSGNYSNEEEESVGTESGQAVLSKAPCGGPCSVPSPPGTLEDGTCFLGNEKYLQSPALRTEPALLC
B2: Interferon alpha/beta receptor 1 (Homo sapiens), P17181 (parent)
chain: MMVVLLGATTLVLVAVAPWVLSAAAGGKNLKSPQKVEVDIIDDNFILRWNRSDESVGNVTFSFDYQKTGMDNWIKLSGCQNITSTKCNFSSLKLNVYEEIKLRIRAEKENTSSWYEVDSFTPFRKAQIGPPEVHLEAEDKAIVIHISPGTKDSVMWALDGLSFTYSLVIWKNSSGVEERIENIYSRHKIYKLSPETTYCLKVKAALLTSWKIGVYSPVHCIKTTVENELPPPENIEVSVQNQNYVLKWDYTYANMTFQVQWLHAFLKRNPGNHLYKWKQIPDCENVKTTQCVFPQNVFQKGIYLLRVQASDGNNTSFWSEEIKFDTEIQAFLLPPVFNIRSLSDSFHIYIGAPKQSGNTPVIQDYPLIYEIIFWENTSNAERKIIEKKTDVTVPNLKPLTVYCVKARAHTMDEKLNKSSVFSDAVCEKTKPGNTSKIWLIVGICIALFALPFVIYAAKVFLRCINYVFFPSLKPSSSIDEYFSEQPLKNLLLSTSEEQIEKCFIIENISTIATVEETNQTDEDHKKYSSQTSQDSGNYSNEDESESKTSEELQQDFV

Variants of: B1
Conditions: with fbw1b_human FBXW11, Q9UKB1
fbw1b_human FBXW11, Q9UKB1, sequence (Q9UKB1 whole entry): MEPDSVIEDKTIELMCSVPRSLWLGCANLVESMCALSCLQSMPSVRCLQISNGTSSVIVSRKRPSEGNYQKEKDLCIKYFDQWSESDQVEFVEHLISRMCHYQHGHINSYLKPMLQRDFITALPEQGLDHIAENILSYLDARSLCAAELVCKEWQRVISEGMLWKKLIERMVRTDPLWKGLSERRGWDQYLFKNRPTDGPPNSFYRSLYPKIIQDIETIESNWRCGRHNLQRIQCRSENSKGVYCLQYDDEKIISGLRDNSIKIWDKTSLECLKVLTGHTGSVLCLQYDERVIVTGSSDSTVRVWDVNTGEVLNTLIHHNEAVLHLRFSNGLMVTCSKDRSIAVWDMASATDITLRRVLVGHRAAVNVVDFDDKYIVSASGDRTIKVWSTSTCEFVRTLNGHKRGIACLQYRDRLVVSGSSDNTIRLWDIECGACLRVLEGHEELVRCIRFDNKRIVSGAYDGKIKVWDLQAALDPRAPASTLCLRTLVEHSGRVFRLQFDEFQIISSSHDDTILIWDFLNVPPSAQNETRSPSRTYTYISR

Row | Variant | effect of a mutation on the interaction
1 | S526A | disrupting interaction

Variants of: B2
Conditions: with fbw1b_human FBXW11, Q9UKB1

Row | Variant | effect of a mutation on the interaction
2 | S535A | disrupting interaction

Variants of: B2
Conditions: with fbw1b_human FBXW11, Q9UKB1
Remark: another data set of the same source

Row | Variant | effect of a mutation on the interaction
3 | S535A | decreasing interaction
